Assay results from patent publication EP2014310A2 (Dyax Corporation, dated 2009).
Ends that are not written are not given here.

B1: phage isolate GSWCEMRQDVGKWNCFSD (peptide)
peptide: GSWCEMRQDVGKWNCFSD
B2: phage isolate WWECKREEYRNTTWCAWA (peptide)
peptide: WWECKREEYRNTTWCAWA
B3: phage isolate NWECGWSNMFQKEFCARP (peptide)
peptide: NWECGWSNMFQKEFCARP
B4: phage isolate PDTCTMWGDSGRWYCFPA (peptide)
peptide: PDTCTMWGDSGRWYCFPA
B5: phage isolate ASTCVFHDHPYFPMCQDN (peptide)
peptide: ASTCVFHDHPYFPMCQDN
B6: phage isolate DWACDEYWSAYSVLCKHP (peptide)
peptide: DWACDEYWSAYSVLCKHP
B7: phage isolate SRVCWEYSWGGEVCYRV (peptide)
peptide: SRVCWEYSWGGEVCYRV
B8: phage isolate SDLCYNQSGWWELCYFD (peptide)
peptide: SDLCYNQSGWWELCYFD
B9: phage isolate YYQCQRYWDGKTWWCEYN (peptide)
peptide: YYQCQRYWDGKTWWCEYN
B10: phage isolate PFWCKFQQSKAMFPCSWF (peptide)
peptide: PFWCKFQQSKAMFPCSWF
B11: phage isolate GWCQMDAQGIWSCWAD (peptide)
peptide: GWCQMDAQGIWSCWAD
B12: phage isolate NWKCEYTQGYDYTECVYL (peptide)
peptide: NWKCEYTQGYDYTECVYL
B13: phage isolate SRVCWEYSWGGQICLGY (peptide)
peptide: SRVCWEYSWGGQICLGY
B14: phage isolate WRICWESSWGGEVCIGH (peptide)
peptide: WRICWESSWGGEVCIGH
B15: phage isolate DRWCMLDQEKGWWLCGPP (peptide)
peptide: DRWCMLDQEKGWWLCGPP
B16: phage isolate LGYCMYDYENRGWTCYPP (peptide)
peptide: LGYCMYDYENRGWTCYPP
modifications: not fully specified; cysteine pairing not given here
B17: phage isolate SGYCEFESDTGRWFCSSW (peptide)
peptide: SGYCEFESDTGRWFCSSW
B18: phage isolate PPLCYFVGTQEWHHCNPF (peptide)
peptide: PPLCYFVGTQEWHHCNPF
B19: phage isolate DNWCEIVVEKGQWFCYGS (peptide)
peptide: DNWCEIVVEKGQWFCYGS
B20: phage isolate GGWCQLVDHSWWWCGDS (peptide)
peptide: GGWCQLVDHSWWWCGDS
B21: phage isolate YPWCHELSDSVTRFCVPW (peptide)
peptide: YPWCHELSDSVTRFCVPW
B22: phage isolate YPWCHEHSDSVTRFCVPW (peptide)
peptide: YPWCHEHSDSVTRFCVPW
B23: phage isolate NSECGCPNMLHKEFCARH (peptide)
peptide: NSECGCPNMLHKEFCARH
B24: phage isolate SSVCFEYSWGGEVCFRY (peptide)
peptide: SSVCFEYSWGGEVCFRY
B25: phage isolate DHMCRSPDYQDHVFCMYW (peptide)
peptide: DHMCRSPDYQDHVFCMYW
B26: phage isolate PAQCWESNYQGIFFCDNP (peptide)
peptide: PAQCWESNYQGIFFCDNP
B27: phage isolate SRVCWEDSWGGEVCFRY (peptide)
peptide: SRVCWEDSWGGEVCFRY
B28: phage isolate DSWCELEHQSGIWRCDFW (peptide)
peptide: DSWCELEHQSGIWRCDFW
B29: phage isolate FGECWEYFWGGEFCLRV (peptide)
peptide: FGECWEYFWGGEFCLRV
B30: phage isolate YPGCYETSLSGVWFCADG (peptide)
peptide: YPGCYETSLSGVWFCADG
B31: phage isolate YGVCWEYSWGGEVCLRF (peptide)
peptide: YGVCWEYSWGGEVCLRF
B32: phage isolate GWACAKWPWGGEICQPS (peptide)
peptide: GWACAKWPWGGEICQPS
B33: phage isolate FSVCWEYSWGGEVCLRQ (peptide)
peptide: FSVCWEYSWGGEVCLRQ
B34: phage isolate LVMCISPEGYCYEI (peptide)
peptide: LVMCISPEGYCYEI
B35: phage isolate WVQCASDTGKCIMG (peptide)
peptide: WVQCASDTGKCIMG
B36: phage isolate WIICDGNLGWCWEG (peptide)
peptide: WIICDGNLGWCWEG
B37: phage isolate KELCEDDWYYCYLM (peptide)
peptide: KELCEDDWYYCYLM
B38: phage isolate TGNCQEDWYYCWYF (peptide)
peptide: TGNCQEDWYYCWYF
B39: phage isolate PNTCETFDLYCWWI (peptide)
peptide: PNTCETFDLYCWWI
B40: phage isolate GEQCSNLAVACCST (peptide)
peptide: GEQCSNLAVACCST
B41: phage isolate GITCYSDTGKCFSF (peptide)
peptide: GITCYSDTGKCFSF
B42: phage isolate YVDCYYDTGRCYHQ (peptide)
peptide: YVDCYYDTGRCYHQ
B43: phage isolate LIECYAHTGLCFDF (peptide)
peptide: LIECYAHTGLCFDF
B44: phage isolate HWECYSDTGKCWFF (peptide)
peptide: HWECYSDTGKCWFF
B45: phage isolate WEWCPIDAWECIML (peptide)
peptide: WEWCPIDAWECIML
B46: phage isolate HWWCAFQPQECEYW (peptide)
peptide: HWWCAFQPQECEYW
B47: phage isolate WYWCHHIGMYCDGF (peptide)
peptide: WYWCHHIGMYCDGF
B48: phage isolate HYECWYPEGKCYFY (peptide)
peptide: HYECWYPEGKCYFY
B49: phage isolate AVTCWALTGHCVEE (peptide)
peptide: AVTCWALTGHCVEE

Target: T1, human KDR-Fc fusion (R&D Systems #357-KD-050) (human, UniProt P35968 20-764)
T1 construct: bought
Test: phage binding screen on KDR-Fc; class legend in paragraph 246

T1 sequence (P35968 20-764): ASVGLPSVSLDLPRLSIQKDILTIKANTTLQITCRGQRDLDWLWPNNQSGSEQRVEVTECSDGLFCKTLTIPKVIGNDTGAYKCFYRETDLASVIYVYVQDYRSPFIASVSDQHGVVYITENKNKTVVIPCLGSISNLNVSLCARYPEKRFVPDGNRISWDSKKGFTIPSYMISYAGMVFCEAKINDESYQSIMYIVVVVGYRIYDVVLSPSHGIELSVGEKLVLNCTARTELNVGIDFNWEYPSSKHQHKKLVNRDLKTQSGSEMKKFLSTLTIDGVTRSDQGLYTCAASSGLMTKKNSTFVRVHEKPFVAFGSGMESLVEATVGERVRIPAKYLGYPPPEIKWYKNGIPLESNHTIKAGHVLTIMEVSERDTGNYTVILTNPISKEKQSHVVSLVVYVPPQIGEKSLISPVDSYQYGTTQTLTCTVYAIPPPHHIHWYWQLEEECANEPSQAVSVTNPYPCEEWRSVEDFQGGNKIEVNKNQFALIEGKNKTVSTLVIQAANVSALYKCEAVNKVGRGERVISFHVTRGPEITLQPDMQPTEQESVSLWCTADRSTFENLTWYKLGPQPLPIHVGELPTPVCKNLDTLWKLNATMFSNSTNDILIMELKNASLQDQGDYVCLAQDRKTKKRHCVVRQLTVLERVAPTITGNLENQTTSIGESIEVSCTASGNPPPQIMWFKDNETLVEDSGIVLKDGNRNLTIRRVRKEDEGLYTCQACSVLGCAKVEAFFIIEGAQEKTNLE

Binder	binding result
B1	binds
B2	binds
B3	binds
B4	binds
B5	binds
B6	binds
B7	binds
B8	binds
B9	binds
B10	binds
B11	binds
B12	binds
B13	binds
B14	binds
B15	binds
B16	binds
B17	binds

Binder	binding result
B18	binds
B19	binds
B20	binds
B21	binds
B22	binds
B23	binds
B24	binds
B25	binds
B26	binds
B27	binds
B28	binds
B29	binds
B30	binds
B31	binds
B32	binds
B33	binds

Target: T1, human KDR-Fc fusion (R&D Systems …)
Test: as above
Remark: another data set of the same source

Binder	binding result
B34	binds
B35	binds
B36	binds
B37	binds
B38	binds
B39	binds
B40	binds
B41	binds
B42	binds
B43	binds
B44	binds
B45	binds
B46	binds
B47	binds
B48	binds
B49	binds
